Measurements published in patent US20140271653A1 (Regeneron, published 2014).
Where two headings read alike, the source gives them in different places.

How the values were obtained:
[1] = molecular target: T1, RSV-F of RSV subtype B strain 1580 (respiratory syncytial virus subtype B, …); assay: cell-based or functional assay
[2] = molecular target: T2, RSV-F of RSV subtype B strain 9320 (respiratory syncytial virus subtype B, …); assay: cell-based or functional assay
[3] = molecular target: T3, RSV-F.mmh (Respiratory Syncytial Virus); assay: SPR (Biacore), mAb captured via Fc, soluble RSV-F.mmh injected, 25 C
T3 construct: also called recombinant RSV-F; soluble monomeric RSV-F

[4] = molecular target: T4, RSV-F of RSV subtype A strain A2 (1540) (respiratory syncytial virus subtype A, …, UniProt P03420 26-574); assay: cell-based or functional assay
[5] = molecular target: T5, RSV-F of RSV subtype A strain Long (respiratory syncytial virus subtype A, …, UniProt P12568 26-574); assay: cell-based or functional assay
[6] = molecular target: T4, RSV-F of RSV subtype A strain A2 (1540); assay: cell-based or functional assay; remark: listed apart in the source
[7] = molecular target: RSV-F of RSV subtype A clinical isolate A2000/3-4 (respiratory syncytial virus subtype A, …); assay: cell-based or functional assay
[8] = molecular target: RSV-F of RSV subtype A clinical isolate A1998/12-21 (respiratory syncytial virus subtype A, …); assay: cell-based or functional assay
[9] = molecular target: RSV-F of RSV subtype A clinical isolate A1998/3-2 (respiratory syncytial virus subtype A, …); assay: cell-based or functional assay
[10] = molecular target: RSV-F of RSV subtype A clinical isolate A2001/2-20 (respiratory syncytial virus subtype A, …); assay: cell-based or functional assay
[11] = molecular target: RSV-F of RSV subtype A clinical isolate A1997/12-35 (respiratory syncytial virus subtype A, …); assay: cell-based or functional assay
[12] = molecular target: RSV-F of RSV subtype A clinical isolate A2001/3-12 (respiratory syncytial virus subtype A, …); assay: cell-based or functional assay
[13] = molecular target: RSV-F of RSV subtype B strain 1400 (respiratory syncytial virus subtype B, …); assay: cell-based or functional assay
[14] = molecular target: RSV-F of RSV subtype B strain 18537 (respiratory syncytial virus subtype B, …, UniProt P13843 26-574); assay: cell-based or functional assay
[15] = molecular target: T2, RSV-F of RSV subtype B strain 9320; assay: cell-based or functional assay; remark: listed apart in the source
[16] = molecular target: RSV-F of RSV subtype B strain 1A2 (respiratory syncytial virus subtype B, …); assay: cell-based or functional assay
[17] = molecular target: T4, RSV-F of RSV subtype A strain A2 (1540); assay: cell-based or functional assay; remark: listed apart in the source
[18] = molecular target: T5, RSV-F of RSV subtype A strain Long; assay: cell-based or functional assay; remark: listed apart in the source
[19] = molecular target: T1, RSV-F of RSV subtype B strain 1580; assay: cell-based or functional assay; remark: listed apart in the source
[20] = molecular target: T4, RSV-F of RSV subtype A strain A2 (1540); assay: cell-based or functional assay; remark: listed apart in the source
[21] = molecular target: T4, RSV-F of RSV subtype A strain A2 (1540); assay: cell-based or functional assay; remark: listed apart in the source
[22] = molecular target: RSV-F S173Y of escape mutant RSV/A S173Y (respiratory syncytial virus subtype A, …, UniProt P03420 26-574); assay: cell-based or functional assay
[23] = molecular target: RSV-F T174K of escape mutant RSV/B T174K (respiratory syncytial virus subtype B, …); assay: cell-based or functional assay
[24] = molecular target: RSV-F S173T/T174K of escape mutant RSV/B S173T/T174K (respiratory syncytial virus subtype B, …); assay: cell-based or functional assay
[25] = molecular target: RSV-F S173T of escape mutant RSV/B S173T (respiratory syncytial virus subtype B, …); assay: cell-based or functional assay
[26] = molecular target: T3, RSV-F.mmh; assay: SPR (Biacore), mAb captured via Fc, soluble RSV-F.mmh injected, 25 C; remark: listed apart in the source
Experimental: Measurements were conducted on a Biacore 4000 or T-200 instrument. […] All Biacore binding studies were performed in HBST running buffer (0.01 M HEPES pH 7.4, 0.15 M NaCl, 3 mM EDTA, 0.005% v/v surfactant P20). Different concentrations of RSV-F.mmh prepared in HBST running buffer were injected over the anti-RSV-F monoclonal antibody captured surface at a flow rate of 30 μl/min (Biacore 4000) or at a flow rate of 50 μl/min (Biacore T-200) and the association of RSV-F.mmh to captured monoclonal antibody was monitored for 6 min or 3 min respectively. The dissociation of RSV-F.mmh from the monoclonal antibody in HBST running buffer was monitored for 8-10 min at 25° C. Kinetic association (kₐ) and dissociation (kd) rate constants were determined by processing and fitting the data to a 1:1 binding model using Scrubber 2.0 curve fitting software. Binding dissociation equilibrium constants (KD) and dissociative half-lives (t½) were calculated from the kinetic rate constants as: KD (M)=kd/kₐ; and t_{1/2} (min)=(ln 2/(60*kd).

B1: H1H3627N (antibody, V domains shown)
VH: EVQLVESGGGLVQPGGSLRLSCAASGFTISNYEMNWVRQAPGKGLEWVSYISTSGITIYYADSVQGRFTISRDNAKNSLYLQLNSLRAEDTAVYYCARGYCTNGVCYPHYYYSDMDVWGQGTTVTVSS
VL: DIQMTQSPSSLSASVGDRLTITCRASQTISTYLNWFQQKVGNAPKLLIYSTSSLQSGVPARFSGSGSGTDFTLTISSLQPEDFATYYCQQSYSSPPTFGQGTKVEIK
RSV - 1580 Neutral. IC50 [pM] [1]: 6.7 pM
RSV - 1580 neutralization, Fold Improvement Relative to Control 1 [1]: 55 fold
RSV-9320 Neutral. IC50 [pM] [2]: 11 pM
RSV-9320 neutralization, Fold Improvement Relative to Control 1 [2]: 42 fold
Kd [3]: 0.581 nM
koff [3]: 0.000149 s⁻¹
kon [3]: 256000 M⁻¹ s⁻¹
t½ [3]: 1.3 h
RSV-A2 (1540) Neutral. IC50 [pM] [4]: 2.6 pM
RSV-A2 (1540) neutralization, Fold Improvement Relative to Control 1 [4]: 138 fold
RSV-Long Neutral. IC50 [pM] [5]: 7.3 pM
RSV-Long neutralization, Fold Improvement Relative to Control 1 [5]: 73 fold
IC50 [pM] for RSV A2 Neutralization, Trial 7 [6]: 3 pM

B2: H1H3592P3 (antibody, V domains shown)
VH: EVQLVESGGDLVQPGRSLRLSCVASGFTFDDYAMHWVRQAPGKGLEWVSGVSWSGSTVGYADSVKGRFTVSRDNAQKSLYLQMNSLRAEDTALYYCVKDAYKFNYYYYGLDVWGQGTTVTVSS
VL: EIVMTQSPATLSVSPGERATLSCRASQTILSNLAWYLQKPGQAPRLLIYGASTRATGLPARFSGSGSGTEFTLTISSLQSEDFAVYYCQQYNNWPLTFGGGTKVEIK
IC50 (pM), RSV micro-neutralization, clinical isolate [7]: 50 pM
IC50 (pM), RSV micro-neutralization, clinical isolate [8]: 34 pM
IC50 (pM), RSV micro-neutralization, clinical isolate [9]: 35 pM
IC50 (pM), RSV micro-neutralization, clinical isolate [10]: 43 pM
IC50 (pM), RSV micro-neutralization, clinical isolate [11]: 40 pM
IC50 (pM), RSV micro-neutralization, clinical isolate [12]: 66 pM
IC50 (pM), RSV micro-neutralization, B/1400 [13]: 33 pM
IC50 (pM), RSV micro-neutralization, B/18537 [14]: 230 pM
IC50 (pM), RSV micro-neutralization, B/9320 [15]: 151 pM
IC50 (pM), RSV micro-neutralization, B/1A2 [16]: 48 pM
IC50 (pM), RSV micro-neutralization, A/A2 [17]: 140 pM
IC50 (pM), RSV micro-neutralization, A/Long [18]: 44 pM
Neutralization IC50, pM (microneutralization, wt subtype B) [19]: 290 pM
Neutralization IC50, pM (microneutralization, wt subtype A) [20]: 177 pM
RSV - 1580 Neutral. IC50 [pM] [1]: 31 pM
RSV - 1580 neutralization, Fold Improvement Relative to Control 1 [1]: 12 fold
RSV-9320 Neutral. IC50 [pM] [2]: 100 pM
RSV-9320 neutralization, Fold Improvement Relative to Control 1 [2]: 4.6 fold
Kd [3]: 8.43 nM
koff [3]: 0.000747 s⁻¹
kon [3]: 88600 M⁻¹ s⁻¹
t½ [3]: 0.25 h
RSV-A2 (1540) Neutral. IC50 [pM] [4]: 10 pM
RSV-A2 (1540) neutralization, Fold Improvement Relative to Control 1 [4]: 36 fold
RSV-Long Neutral. IC50 [pM] [5]: 15 pM
RSV-Long neutralization, Fold Improvement Relative to Control 1 [5]: 35 fold
IC50 of blocking viral fusion (antibody added after viral attachment at 4 C, infection read by ELISA) [21]: 0.23 nM
IC50 [pM] for RSV A2 Neutralization, Trial 7 [6]: 10 pM

B3: Control II (motavizumab sequence) (antibody, V domains shown)
VH: QVTLRESGPALVKPTQTLTLTCTFSGFSLSTAGMSVGWIRQPPGKALEWLADIWWDDKKHYNPSLKDRLTISKDTSKNQVVLKVTNMDPADTATYYCARDMIFNFYFDVWGQGTTVTVSS
VL: DIQMTQSPSTLSASVGDRVTITCSASSRVGYMHWYQQKPGKAPKLLIYDTSKLASGVPSRFSGSGSGTEFTLTISSLQPDDFATYYCFQGSGYPFTFGGGTKVEIKR
IC50 (pM), RSV micro-neutralization, clinical isolate [7]: 88 pM
IC50 (pM), RSV micro-neutralization, clinical isolate [8]: 68 pM
IC50 (pM), RSV micro-neutralization, clinical isolate [9]: 36 pM
IC50 (pM), RSV micro-neutralization, clinical isolate [10]: 74 pM
IC50 (pM), RSV micro-neutralization, clinical isolate [11]: 41 pM
IC50 (pM), RSV micro-neutralization, clinical isolate [12]: 129 pM
IC50 (pM), RSV micro-neutralization, B/1400 [13]: 38 pM
IC50 (pM), RSV micro-neutralization, B/18537 [14]: 187 pM
IC50 (pM), RSV micro-neutralization, B/9320 [15]: 76 pM
IC50 (pM), RSV micro-neutralization, B/1A2 [16]: 40 pM
IC50 (pM), RSV micro-neutralization, A/A2 [17]: 202 pM
IC50 (pM), RSV micro-neutralization, A/Long [18]: 83 pM
Neutralization IC50, pM (microneutralization, escape mutant) [22]: 170 pM
Neutralization IC50, pM (microneutralization, wt subtype B) [19]: 260 pM
Neutralization IC50, pM (microneutralization, escape mutant) [23]: 108 pM
Neutralization IC50, pM (microneutralization, escape mutant) [24]: 218 pM
Neutralization IC50, pM (microneutralization, escape mutant) [25]: 177 pM
Neutralization IC50, pM (microneutralization, wt subtype A) [20]: 108 pM
RSV - 1580 Neutral. IC50 [pM] [1]: 43 pM
RSV - 1580 neutralization, Fold Improvement Relative to Control 1 [1]: 8.7 fold
RSV-9320 Neutral. IC50 [pM] [2]: 56 pM
RSV-9320 neutralization, Fold Improvement Relative to Control 1 [2]: 8.2 fold
RSV-A2 (1540) Neutral. IC50 [pM] [4]: 14 pM
RSV-A2 (1540) neutralization, Fold Improvement Relative to Control 1 [4]: 25 fold
RSV-Long Neutral. IC50 [pM] [5]: 65 pM
RSV-Long neutralization, Fold Improvement Relative to Control 1 [5]: 8.2 fold
IC50 [pM] for RSV A2 Neutralization, Trial 1 [6]: 50 pM
IC50 [pM] for RSV A2 Neutralization, Trial 2 [6]: 30 pM
IC50 [pM] for RSV A2 Neutralization, Trial 3 [6]: 23 pM
IC50 [pM] for RSV A2 Neutralization, Trial 4 [6]: 20 pM
IC50 [pM] for RSV A2 Neutralization, Trial 5 [6]: 12 pM
IC50 [pM] for RSV A2 Neutralization, Trial 6 [6]: 12 pM
IC50 [pM] for RSV A2 Neutralization, Trial 7 [6]: 12 pM

B4: H1M3622N (antibody, V domains shown)
VH: QVQLQQWGAGLLKPSETLSLTCAVYGGSLSDYYWSWIRQPPGKGLEWIGEINHSGDTNYDPSLKSRLTISVDTSKNQFSLKLNSVTAADTAVYYCASLYFNFWMWGRGALVTVSS
VL: DIVMTQTPLSSPVILGQPASISCRSSQSLVYSDGNTYLSWLQQRPGQPPRLLIYKISNRFSGVPDRFSGSGTGTDFTLKISRVEAEDVGIYYCMQTTQFPLTFGGGTKVEIK
Kd [26]: 2.38 nM
koff [26]: 9.13e-05 s⁻¹
kon [26]: 38400 M⁻¹ s⁻¹
t½ [26]: 2.12 h
IC50 [pM] for RSV A2 Neutralization, Trial 1 [6]: 320 pM
IC50 [pM] for RSV A2 Neutralization, Trial 2 [6]: 82 pM
